In the supplement of paper PMC10724198:
± gives the standard deviation of the averaged measurements.

Key:
Saccharomyces cerevisiae [1] = experiment: protein stability index of tFT-peptide fusion (C-terminal peptide) (PSI (0-1 scale)); higher = more stable (slower turnover)
Method: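 MPS profiling in S. cerevisiae of the tFT-X12 degron library: putative degron peptides plus stable controls, 12 aa, fused to the C-terminus of a sfGFP-mCherry timer. Cells are FACS-sorted into 8 mCherry/sfGFP bins and deep-sequenced. PSI runs from 0 (unstable) to 1 (stable). Backgrounds are wild type, das1Δ and doa10Δ at 30 °C, and wild type, das1Δ, cdc34-1 and cdc53-1 at 37 °C; 2-3 technical replicates each.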

Saccharomyces cerevisiae [2] = experiment: as above; conditions: genetic background: wild type; temperature: 30 C
[3] = genetic background: cdc34-1, temperature: 37 C
[4] = genetic background: cdc53-1, temperature: 37 C
[5] = genetic background: das1 deletion, temperature: 30 C
[6] = genetic background: das1 deletion, temperature: 37 C
[7] = genetic background: doa10 deletion, temperature: 30 C
[8] = genetic background: wild type, temperature: 30 C
[9] = genetic background: wild type, temperature: 37 C
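Note: PSI is a weighted mean of sequencing reads over stability bins, variants kept only with over 10 reads, mCherry proximal and sfGFP distal, peptide attached via GGGS linker.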

Sequence	protein stability index (Saccharomyces cerevisiae [1]; [3])	protein stability index (Saccharomyces cerevisiae [1]; [4])	protein stability index (Saccharomyces cerevisiae [1]; [5])	protein stability index (Saccharomyces cerevisiae [1]; [6])	protein stability index (Saccharomyces cerevisiae [1]; [7])	protein stability index (Saccharomyces cerevisiae [1]; [8])	protein stability index (Saccharomyces cerevisiae [1]; [9])	protein stability index (Saccharomyces cerevisiae [2])
LVGLLASWLRFN	0.579 ± 0.052	0.6987 ± 0.001	0.672 ± 0.0051	0.773 ± 0.017	0.12 ± 0.0057	0.137 ± 0.012	0.199 ± 0.061	0.137 ± 0.039
LVLALTPFLHSF	0.639 ± 0.01	0.701 ± 0.017	0.638 ± 0.021	0.727 ± 0.012	0.239 ± 0.0075	0.284 ± 0.018	0.551 ± 0.0073	0.399 ± 0.0069
LVLSVWFFNCTS	0.485 ± 0.0093	0.569 ± 0.021	0.422 ± 0.032	0.573 ± 0.022	0.277 ± 0.0063	0.283 ± 0.039	0.5196 ± 0.0025	0.424 ± 0.021
LVRFYGPLPPFP	0.688 ± 0.047	0.7613 ± 0.0063	0.664 ± 0.029	0.757 ± 0.011	0.656 ± 0.016	0.66 ± 0.011	0.729 ± 0.011	0.7258 ± 0.0068
LVRGGLTNLFLF	0.664 ± 0.046	0.78 ± 0.019	0.644 ± 0.024	0.7829 ± 0.0056	0.181 ± 0.0012	0.194 ± 0.032	0.47 ± 0.016	0.316 ± 0.032
LWFFVVVVVRWV	0.102 ± 0.014	0.135 ± 0.0081	0.149 ± 0.032	0.2611 ± 0.0017	0.139 ± 0.019	0.136 ± 0.027	0.183 ± 0.03	0.189 ± 0.053
LWRFFFVAFVGI	0.446 ± 0.0079	0.509 ± 0.024	0.377 ± 0.034	0.55 ± 0.0084	0.359 ± 0.0076	0.357 ± 0.021	0.515 ± 0.018	0.421 ± 0.025
MALAVRVVFCGA	0.3299 ± 0.0012	0.338 ± 0.0067	0.275 ± 0.032	0.436 ± 0.015	0.227 ± 0.0095	0.27 ± 0.025	0.418 ± 0.01	0.371 ± 0.058
MALAVRVVICGA	0.0365 ± 0.01	0.11 ± 0.097	0.134 ± 0.015	0.172 ± 0.011	0.103 ± 0.012	0.107 ± 0.019	0.134 ± 0.026	0.169 ± 0.0098
MLCVFVFIWYFV	0.235 ± 0.03	0.279 ± 0.013	0.254 ± 0.011	0.359 ± 0.0048	0.218 ± 0.013	0.208 ± 0.024	0.307 ± 0.02	0.235 ± 0.011
MLFALLTIVFLG	0.241 ± 0.031	0.3263 ± 0.0015	0.242 ± 0.024	0.388 ± 0.0085	0.166 ± 0.0093	0.182 ± 0.015	0.30056 ± 0.00017	0.295 ± 0.016
MLTYVVRSLVGY	0.484 ± 0.0066	0.4954 ± 0.0015	0.37 ± 0.045	0.527 ± 0.011	0.331 ± 0.017	0.375 ± 0.023	0.496 ± 0.018	0.422 ± 0.029
MWFVGLCLHFFM	0.472 ± 0.029	0.5504 ± 0.0014	0.409 ± 0.024	0.546 ± 0.035	0.344 ± 0.0067	0.364 ± 0.017	0.499 ± 0.019	0.3985 ± 0.0019
NAGSHHAAVKLG	0.664 ± 0.064	0.74 ± 0.027	0.6411 ± 0.0016	0.7163 ± 0.001	0.222 ± 0.018	0.266 ± 0.023	0.502 ± 0.012	0.399 ± 0.06
NCMGLLMPLLIT	0.437 ± 0.024	0.391 ± 0.0086	0.378 ± 0.039	0.504 ± 0.019	0.2688 ± 0.00028	0.254 ± 0.037	0.382 ± 0.012	0.353 ± 0.0039
NFFLLFFFFLSF	0.455 ± 0.037	0.4876 ± 0.0038	0.398 ± 0.045	0.535 ± 0.0082	0.4656 ± 0.0034	0.41 ± 0.043	0.512 ± 0.022	0.415 ± 0.049
PAMPTEPKSSSG	0.667 ± 0.019	0.7403 ± 0.0028	0.629 ± 0.015	0.716 ± 0.034	0.644 ± 0.015	0.667 ± 0.033	0.717 ± 0.0095	0.7016 ± 0.0016
PFFSSLKYRRDH	0.598 ± 0.07	0.751 ± 0.014	0.6675 ± 0.0032	0.77 ± 0.02	0.117 ± 0.024	0.142 ± 0.023	0.197 ± 0.014	0.237 ± 0.051
PFFVFSFLFLLH	0.114 ± 0.01	0.183 ± 0.023	0.192 ± 0.024	0.313 ± 0.035	0.194 ± 0.012	0.15 ± 0.029	0.275 ± 0.015	0.288 ± 0.054
